The assay deals with T1, BMP-2 (Homo sapiens, UniProt P12643).
T1 construct: Genetics Institute, Cambridge, Mass; (gift)
T1 sequence (P12643 283-396): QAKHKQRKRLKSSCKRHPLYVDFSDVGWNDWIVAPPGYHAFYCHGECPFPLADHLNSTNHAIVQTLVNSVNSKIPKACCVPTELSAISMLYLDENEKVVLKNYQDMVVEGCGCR
Nature of the assay: BIAcore surface plasmon resonance, binding to immobilized BMP-2. Particulars: Table 2 (calculations repeated); ligand BMP-2. The protocol:
In this system, a purified protein serving as the ligand is covalently coupled to a carboxymethylated dextran surface, and binding molecules (i.e. the analyte) are passed in a fluid phase across the surface. Binding of the analyte to ligand causes a change in reflected light which is directly proportional to mass bound, and is measured in arbitrary response units (R.U.). Analyte-ligand binding is observed as both increasing response with time during the injection of analyte, and the difference in the position of the baseline before and after injection.
Schuster, R. V. Swanson, L. A. Alex, R. B. Bourret, M. I. Simon, Nature 365, 343 (1993). 1000 R.U. equals approximately 1 ng/mm^2. The running buffer was 20 mM Hepes (pH 7.2), 150 mM NaCl and the flow rate for all sensorgrams was 3 μl/min.
Regeneration of the surface to remove bound analyte was done by injection of 10 μl of 20 mM NaOH. To cyclize TRH1 peptides, the material was reduced with 5 mM DTT then brought to a final concentration of 60 μM in 25 mM ammonium acetate (pH 8.5). […]
Data was analyzed using the BIA-evaluation software (Pharmacia Biosensor). The association rate constant, kass, was calculated by first plotting the change in response with time versus response (i.e. dR/dT vs R). […] The affinity constants were calculated from KD =kdiss /kass. […]

B1: h-Fetuin: adult human fetuin/α2-HS glycoprotein (Calbiochem) (protein)
chain: APHGPGLIYRQPNCDDPETEEAALVAIDYINQNLPWGYKHTLNQIDEVKVWPQQPSGELFEIEIDTLETTCHVLDPTPVARCSVRQLKEHAVEGDCDFQLLKLDGKFSVVYAKCDSSPDSAEDVRKVCQDCPLLAPLNDTRVVHAAKAALAAFNAQNNGSNFQLEEISRAQLVPLPPSTYVEFTVSGTDCVAKEATEAAKCNLLAEKQYGFCKATLSEKLGGAEVAVTCMVFQTQPVSSQPQPEGANEAVPTPVVDPDAPPSPPLGAPGLPPAGSPPDSHVLLAAPPGHQLHRAHYDLRHTFMGVVSLGSPSGEVSHPRKTRTVVQPSVGAAAGPVVPPCPGRIRHFKV
Consider B1, for which the kass is 22000 ± 5000 M⁻¹ s⁻¹.
